Holding throughout (test): FRET or BRET
Test [1] addresses hRIβ-Rluc8 (PKA regulatory subunit RIβ conjugated to mutant Renilla luciferase) (human) (UniProt P31321).
Test [2] deals with hRIIα-RLuc8 (PKA regulatory subunit RIIα conjugated to mutant Renilla luciferase) (human) (UniProt P13861).
For test [3], the target named is hRIIβ-RLuc8 (PKA regulatory subunit RIIβ conjugated to mutant Renilla luciferase) (human) (UniProt P31323).
Sequence of hRIIβ-RLuc8 (PKA regulatory subunit RIIβ conjugated to mutant Renilla luciferase) (human) (P31323 whole entry, change not shown): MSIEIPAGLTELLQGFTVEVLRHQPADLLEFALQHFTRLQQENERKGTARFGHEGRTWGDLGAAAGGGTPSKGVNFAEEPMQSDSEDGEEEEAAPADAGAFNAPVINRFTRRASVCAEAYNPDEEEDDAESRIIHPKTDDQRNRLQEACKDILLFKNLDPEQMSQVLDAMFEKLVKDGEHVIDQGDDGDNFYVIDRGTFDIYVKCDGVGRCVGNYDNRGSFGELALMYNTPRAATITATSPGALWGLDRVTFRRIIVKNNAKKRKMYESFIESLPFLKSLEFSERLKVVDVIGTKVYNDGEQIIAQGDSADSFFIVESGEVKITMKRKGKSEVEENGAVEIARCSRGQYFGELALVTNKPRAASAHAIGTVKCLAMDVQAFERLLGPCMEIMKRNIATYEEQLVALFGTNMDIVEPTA

Sequence of hRIIα-RLuc8 (PKA regulatory subunit RIIα conjugated to mutant Renilla luciferase) (human) (P13861 whole entry, change not shown): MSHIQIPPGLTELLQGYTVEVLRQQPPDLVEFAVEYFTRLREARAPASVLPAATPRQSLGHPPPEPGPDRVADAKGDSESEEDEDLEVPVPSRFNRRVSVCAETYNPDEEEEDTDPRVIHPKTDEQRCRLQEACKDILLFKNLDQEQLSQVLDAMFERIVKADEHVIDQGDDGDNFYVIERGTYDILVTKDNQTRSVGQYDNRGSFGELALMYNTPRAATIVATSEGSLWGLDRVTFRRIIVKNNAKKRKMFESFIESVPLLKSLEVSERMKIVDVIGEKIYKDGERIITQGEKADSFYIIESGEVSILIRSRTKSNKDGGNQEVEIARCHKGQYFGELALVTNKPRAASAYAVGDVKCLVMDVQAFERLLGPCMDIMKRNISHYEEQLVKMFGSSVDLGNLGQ
Sequence of hRIβ-Rluc8 (PKA regulatory subunit RIβ conjugated to mutant Renilla luciferase) (human) (P31321 whole entry, change not shown): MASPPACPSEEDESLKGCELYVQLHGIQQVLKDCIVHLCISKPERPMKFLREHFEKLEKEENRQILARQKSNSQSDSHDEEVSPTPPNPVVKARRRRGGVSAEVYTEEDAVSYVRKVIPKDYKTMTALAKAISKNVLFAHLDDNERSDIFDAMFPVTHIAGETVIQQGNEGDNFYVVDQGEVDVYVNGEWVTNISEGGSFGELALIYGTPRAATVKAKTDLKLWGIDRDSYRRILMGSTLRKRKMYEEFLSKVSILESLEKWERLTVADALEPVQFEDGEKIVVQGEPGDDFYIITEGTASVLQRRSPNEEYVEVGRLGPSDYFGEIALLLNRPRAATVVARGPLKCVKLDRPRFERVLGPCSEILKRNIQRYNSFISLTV

In the case of “GFP-hCα (GFP-tagged PKA catalytic subunit Cα) (from UniProt P17612 1-351) (natural protein)”, the BRET signal left after Fsk/IBMX (percent of the unstimulated sensor) stood at 75% in test [1], 25% in test [2] and 28% in test [3].

These data come from PMC5987717.
